Columns and labels:
PTBP1 [1] = biological target: T1, PTBP1 (UniProt P26599 1-557); experiment: EMSA; 1.5 mM Mg2+, 100 mM KCl, pH 8.0; EMSA: 20 mM HEPES pH 8.0, 100 mM KCl, 1.5 mM MgCl2, 10% glycerol, 0.5 mM DTT, native 10% TBE gel; NMR: PTBP1 in 10 mM sodium phosphate pH 6.5, 20 mM NaCl; Nu in 20 mM sodium phosphate pH 6.0, 50 mM NaCl; 298 K; conditions: protein: recombinant; tags: pET28a; label: 5'-32P (EMSA); none (NMR); single-stranded
PTBP1 [2] = biological target: T1, PTBP1; experiment: NMR diffusion (REDIFINE); 1:1 soluble complex; koff 1.41 s-1, kon 3e6 M-1 s-1; 10 mM phosphate pH 6.5, 20 mM NaCl; EMSA: 20 mM HEPES pH 8.0, 100 mM KCl, 1.5 mM MgCl2, 10% glycerol, 0.5 mM DTT, native 10% TBE gel; NMR: PTBP1 in 10 mM sodium phosphate pH 6.5, 20 mM NaCl; Nu in 20 mM sodium phosphate pH 6.0, 50 mM NaCl; 298 K; conditions: protein: recombinant; tags: pET28a; label: 5'-32P (EMSA); none (NMR); single-stranded
Nu(247-419) = Nu(247-419) (SARS-CoV-2, UniProt P0DTC9 247-419); experiment: NMR (1D, DOSY); conditions: protein: recombinant; chain copies: 2; label: none (NMR); 3' Cy5 (microscopy); hairpin

| Binder | Kd (PTBP1 [1]) [nM] | Kd (PTBP1 [2]) [nM] | binding result (Nu(247-419)) |
| --- | --- | --- | --- |
| GGGAGAUCUCUAAAAAUCUCUAAAAAUCUCUAAAAA (ssRNA) [3xUCUCU RNA] | 490 ± 20 | 500 ± 100 |  |
| GGUUCACCGAGGCCACGCGGAGUACGAUCGAGUGUACAGUGAACC (structured_RNA) [s2m RNA] |  |  | binds |
